The values below come from article PMC2879156.

One series has as its target T1, SarA (Staphylococcus aureus, UniProt Q7A1N5 1-124).
T1 sequence: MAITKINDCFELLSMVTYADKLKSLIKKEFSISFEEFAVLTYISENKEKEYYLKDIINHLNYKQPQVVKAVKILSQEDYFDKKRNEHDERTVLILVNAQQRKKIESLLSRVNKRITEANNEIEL
The series is described as follows: EMSA.

In another series the target is SarA C9A (Staphylococcus aureus, UniProt Q7A1N5 1-124, C9A). The series is described as follows: EMSA. A general note: In EMSA bound probe runs differently from free probe, usually more slowly.

B1: agr B1/B2 (dsDNA)
DNA 1: ATGTTAAAATATTAAATACAAATTACATTTAACAGTTAAGTATTTATTTCCTACAGTTA
DNA 2: TAACTGTAGGAAATAAATACTTAACTGTTAAATGTAATTTGTATTTAATATTTTAACAT
As to B1, the binding result with SarA and in the series with SarA C9A was “binds” each time.
